# Measured values published in publication PMC4186817, “Expression, Purification, and Structural Insights for the Human Uric Acid Transporter, GLUT9, Using the Xenopus laevis Oocytes System” (PLoS ONE, 2014).
# Molecular target: the molecule itself
# Test: SDS-PAGE with silver stain and Western blot (anti-HA); eluate of the cobalt IMAC column (HRV 3C elution) from DDM-solubilised oocyte membranes, 8% SDS polyacrylamide gel
protein,measurement,value
"human GLUT9b (SLC2A9b), recombinant (natural protein, UniProt Q9NRM0-2 1-511, looked up, N-glycosylated (shift with PNGase; site not given), human GLUT9 isoform b (SLC2A9b), cDNA from Origene, amplified with primers from the start codon (ATGAAGCTCAGTAAAAAGGACCGAG) to the stop codon; differs from GLUT9a only in the N-terminal residues; Tag order from the N-terminus: 10xHis, FLAG, HRV 3C (PreScission) site, HA, then GLUT9b; The protein was eluted from the cobalt resin by HRV 3C cleavage, so only the HA tag stays on it (it is …)) MKLSKKDRGEDEESDSAKKKLDWSCSLLVASLAGAFGSSFLYGYNLSVVNAPTPYIKAFYNESWERRHGRPIDPDTLTLLWSVTVSIFAIGGLVGTLIVKMIGKVLGRKHTLLANNGFAISAALLMACSLQAGAFEMLIVGRFIMGIDGGVALSVLPMYLSEISPKEIRGSLGQVTAIFICIGVFTGQLLGLPELLGKESTWPYLFGVIVVPAVVQLLSLPFLPDSPRYLLLEKHNEARAVKAFQTFLGKADVSQEVEEVLAESRVQRSIRLVSVLELLRAPYVRWQVVTVIVTMACYQLCGLNAIWFYTNSIFGKAGIPPAKIPYVTLSTGGIETLAAVFSGLVIEHLGRRPLLIGGFGLMGLFFGTLTITLTLQDHAPWVPYLSIVGILAIIASFCSGPGGIPFILTGEFFQQSQRPAAFIIAGTVNWLSNFAVGLLFPFIQKSLDTYCFLVFATICITGAIYLYFVLPETKNRTYAEISQAFSKRNKAYPPEEKIDSAVTDGKINGRP",binding result,binds
